koff data for 6 molecules are collected here from article PMC9340783 (2022).

The target of this assay is hGITR ECD hFc (human, UniProt Q9Y5U5 26-161, Thr45Ala). Description: SPR.
Sequence of hGITR ECD hFc (Q9Y5U5 26-161 T45A): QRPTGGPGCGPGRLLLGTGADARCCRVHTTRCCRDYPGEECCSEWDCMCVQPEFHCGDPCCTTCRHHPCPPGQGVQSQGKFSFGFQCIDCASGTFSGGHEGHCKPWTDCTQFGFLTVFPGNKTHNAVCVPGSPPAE

B1: hab076 (antibody, V domains shown)
VH: QVQLVESGGGVVQPGRSLRLSCAASGFTFSSYGMHWVRQAPGKGLEWVAVIWYETSNKYYADSVKGRFTISRDNSKNTLYLQMNSLRAEDTAVYYCARYGASSGWYWYFDLWGRGTLVTVSS
VL: DIQLTQSPSFLSASVGDRVTITCRASQGISSYLAWYQQKPGKAPKLLIYAASTLQSGVPSRFSGSGSGTEFTLTISSLQPEDFATYCCQQLNSYPFTFGQGTKLEIK
As usually defined, the koff is a measure of how fast the partners let go of each other. In turn, B1 returned a koff of 0.000684 s⁻¹.

B2: hab064 (antibody, V domains shown)
VH: QVQLVESGGGVVQPGRSLRLSCAASGFTFSSYGMHWVRQAPGKGLEWVAVIWYETSNKYYADSVKGRFTISRDNSKNTLYLQMNNLRAEDTAVYYCARYGGNSGWYWYFDLWGRGTLVTVSS
VL: DIQLTQSPSFLSASVGDRVTITCRASQGISSFLAWYQQKPGTAPKLLIYAASTLQSGVPSRFSGSGSGTEFTLTISSLQPEDFATYCCQQLNSYPFTFGQGTKLEIK
B2 showed a koff of 0.000315 s⁻¹. Against the preceding molecule, the koff is about 2.2-fold lower.

B3: hab070e1 (antibody, V domains shown)
VH: QVQLVESGGGVVQPGRSLRLSCAASGFTFSSYGMHWVRQAPGKGLEWVAVIWYETSNKFYVDSVKGRFTISRDNSKNTLYLQMNSLRAEDTAVYYCARYGASSGWYWYFDLWGRGTLVTVSS
VL: DIQLTQSPSFLSASVGDRVTITCRASQGISSFLAWYQQKPGKAPKLLIYAASTLQSGVPSRFSGSGSGTEFTLTISSLQPEDFATYYCQQLNSYPFTFGQGTKLEIK
As to B3, the koff was found to be 0.000381 s⁻¹.

B4: hab070 (antibody, V domains shown)
VH: QVQLVESGGGVVQPGRSLRLSCAASGFTFSSYGMHWVRQAPGKGLEWVAVIWYETSNKFYVDSVKGRFTISRDNSKNTLYLQMNSLRAEDTAVYYCARYGASSGWYWYFDLWGRGTLVTVSS
VL: DIQLTQSPSFLSASVGDRVTITCRASQGISSFLAWYQQKPGKAPKLLIYAASTLQSGVPSRFSGSGSGTEFTLTISSLQPEDFATYCCQQLNSYPFTFGQGTKLEIK
Molecule B4 registered a koff of 0.000185 s⁻¹.

B5: hab019e2 (antibody, V domains shown)
VH: QVQLVESGGGVVQPGRSLRLSCAASGFTFSSYGMHWVRQAPGKGLEWVAVIWYAGSRKFYADSVEGRFTISRDNSKNTLYLQMNSLRAEDTAVYYCARGGSLEGGFFYYGMDVWGQGTTVTVSS
VL: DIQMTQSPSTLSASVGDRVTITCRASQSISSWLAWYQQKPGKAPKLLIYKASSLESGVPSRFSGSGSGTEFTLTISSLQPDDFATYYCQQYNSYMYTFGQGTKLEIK
The molecule B5 registered a koff of 0.00023 s⁻¹.

B6: hab019 (antibody, V domains shown)
VH: QVQLVESGGGVVQPGRSLRLSCAASGFTFSSYGMHWVRQAPGKGLEWVAVIWYAGSRKFYADSVEGRFTISRDNSKNTLYLQMSSVRPEDTAVYYCARGGSLDGGFFYYGMDVWGQGTTVTVSS
VL: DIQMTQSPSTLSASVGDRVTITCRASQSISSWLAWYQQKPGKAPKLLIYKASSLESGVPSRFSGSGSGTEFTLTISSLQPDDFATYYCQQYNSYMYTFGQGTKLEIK
In turn, B6 came in with a koff of 0.000205 s⁻¹.
